In patent US20250177547A1, “PSMA-STEAP1 DUAL VARIABLE DOMAIN IMMUNOGLOBLIN (DVD-Ig) MOLECULES AND DRUG CONJUGATES” (AbbVie Inc., priority 2023, published 2025):
Marks after values point to notes of the source that are not given here.

How the values were obtained:
[1] = system: LNCaP.FGC xenograft; assay: LNCaP.FGC xenograft study of MMAE conjugates; type: in vivo, mouse
Method: (§1) Male NSG mice were obtained from Jackson Laboratories (Bar Harbor, ME) for both LNCaP.FGC and 22Rv1 xenograft studies. Mice were housed by treatment group at seven to eight mice per cage. Food and water were available ad libitum. Mice were acclimated to the animal facilities for a period of at least one week prior to commencement of experiments. Animals were tested in the light phase of a 12-hour light:12-hour dark schedule (lights on at 06:00 hours).
(§2) To generate xenografts from LNCaP.FGC (ATCC) and from 22Rv1 (ATCC) cell lines, 5×10^6 viable LNCaP.FGC and 22Rv1 cells were inoculated subcutaneously into the right flank of male NSG mice, respectively. The injection volume was 0.1 mL and composed of a 1:1 mixture with Matrigel (BD, Franklin Lakes, NJ). Measurements of the length (L) and width (W) of the tumor were taken via electronic caliper and the tumor volume was calculated according to the following equation: V=L×W^2/2.
Mice were assigned to treatment groups so that the mean tumor volumes within groups were approximately 175-250 mm^3. An anti-PSMA-MMAE ADC at Dose-1 1×, an anti-STEAP1-MMAE ADC at Dose-1 1×, and various of the PSMA/STEAP-1 DVD-Igs conjugated with MMAE described above at Dose-1 1.33×(Clone 13 was administered at Dose-1 0.87×due to limited compound availability) were administered within 24-48 hours of assignment to treatment groups based on tumor volumes. Tumor volumes were estimated two times weekly after dosing, with study groups body weights taken at the time of tumor measurements. Mice were euthanized (1) when tumor volume reached 2,000 mm^3, (2) when general efficacy parameters were confidently determined, or (3) when necessitated by other animal health issues.
Parameters of Efficacy were determined as follows:
TGI (tumor growth inhibition)=1−(mean tumor volume of treatment group/mean tumor volume of treatment control group)×100 based on measurements on day of vehicle endpoint. P values are derived from Student's T test comparison of treatment group vs. vehicle control group.
TGD (tumor growth delay)=(T−C)/C×100, where T is the median time to endpoint of treatment group and C is the median time to endpoint of treatment control group. P values are derived from Kaplan Meier log-rank comparison of treatment group vs. vehicle control group.

[2] = system: 22Rv1 xenograft; assay: 22Rv1 xenograft study of MMAE conjugates; type: in vivo, mouse; details: FIG. 4A
Method: as §1, §2
Mice were assigned to treatment groups so that the mean tumor volumes within groups were approximately 175-250 mm^3. […] Mice were euthanized (1) when tumor volume reached 2,000 mm^3, (2) when general efficacy parameters were confidently determined, or (3) when necessitated by other animal health issues.

[3] = system: HEK293-PSMA cells; assay: In vitro cytotoxicity of MMAE conjugates (CellTiter-Glo), HEK293-PSMA; details: FIG. 3B/3E

B1: STEAP1-PSMA-(vcMMAE) Clone 15: PSMA-STEAP1 DVD-Ig clone 15 conjugated with monomethyl auristatin E (MMAE) (conjugate)
heavy: EVQLVESGGGVVQPGRSLRLSCVASGFPFNNYWMTWIRQAPGKGLEWIASITITGGTTYYPGSVKGRFTISRDNSKSTLYLQMNSLRAEDTAVYYCTRERYSTEYYPYYWYFDFWGQGTMVTVSSGGGGSGGGGSEVQLVQSGAEVKKPGSSVKVSCKASGYTFTDYYMNWVKQAPGKGLEWIGLINPSNGGTNYNQKFRDKATLTVDKSTSTAYMELSSLRSEDTAVYYCARRAQATSGDYWGQGTTVTVSS
light: DIQMTQSPSSLSASVGDRVTITCRTSQDIGNYLRWFQQKPGKSPKLMIYDAINLAAGVPSRFSGSGSGTDYTLTISSLQPEDVATYYCLQHNEYPYTFGQGTKLEIKGGSGGGGSGDIQMTQSPSSLSASVGDRVTITCHASQNINVWLSWYQQKPGKAPKLLIYKASNLHTGVPSRFSGSGSGTDFTFTISSLQPEDIATYYCQQGQTYPLTFGGGTKVEIK
modifications: left off: a dimerising Fc or GST; large carriers
[1]; FIG. 4B
  activity in LNCaP.FGC xenograft model relative to monospecific ADCs: comparable or superior activity relative to monospecific ADCs
[1]; LNCaP.FGC xenograft, IP, QD x 1, >25 mm^3 but less than one-half of volume at onset
  PR (%) partial response: 38* %
[1]; LNCaP.FGC xenograft, IP, QD x 1, sum of CR and PR
  TR (%) total responders: 75*** %
[1]; LNCaP.FGC xenograft, IP, QD x 1, tumor burden ≤25 mm^3 for at least three consecutive measurements
  CR (%) complete response: 38%
[1]; LNCaP.FGC xenograft, male NSG mice, IP, QD x 1, day of comparison d 63 post inoculation
  TGI (%): 88*** %
[1]; LNCaP.FGC xenograft, male NSG mice, IP, QD x 1, tumor volume endpoint 1000 mm^3
  TGD (%): 229*** %
[2]
  activity in 22Rv1 xenograft model relative to monospecific ADCs: comparable or superior activity relative to monospecific ADCs
[3]
  cytotoxic activity in HEK293-PSMA cells: weaker than PSMA-MMAE
